± gives the standard deviation of the averaged measurements.
System: ATP
Assay: switch fluorescence ratio, 500 uM ATP over buffer (Cy3 cluster intensity, sum of 5 cycles each) (fold (ratio)); higher = stronger signal-on switching upon ATP binding; sequences stand for … in TCGTCGGCAGCGTCAGATGTGTATAAGAGACAGTTTTTTTTTTTTTTTTTTTTTTTTT…TC
Settings: aptamer strand: ATP DNA aptamer (quencher-CACCTGGGGGAGTATTGCGGAGGAAGG + anchor), 100 nM annealed; ATP concentration: 500 uM
How it was run: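 Per cluster, summed Cy3 intensity from the target cycles was divided by that from the buffer cycles to give the fluorescence ratio, then averaged per switch-domain sequence. Clusters outside 100-1000 RFU were excluded. The Cy3-labelled switching-strand clusters, on a modified Illumina MiSeq flow-cell, were annealed to 100 nM quencher-labelled ATP aptamer and imaged in selection buffer, then after 15 min with 500 uM ATP at 22 °C, for five cycles with NaOH stripping and re-annealing between them.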
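Also: ATP exposure 15 min at 22 °C before imaging.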

Row | Sequence | switch fluorescence ratio
1 | GTTTCGAAAA | 0.9855 ± 0.0074
2 | TGTTTTCCCC | 1.02 ± 0.028
3 | GGTTGACGCA | 1.01 ± 0.03
4 | CGTGAATAGT | 1.03 ± 0.041
5 | TTTGGGGAGC | 0.986 ± 0.045
6 | TAAAAAACGG | 0.954 ± 0.042
7 | GAAGCATTTT | 1.07 ± 0.045
8 | ATATGATGTG | 1.01 ± 0.03
9 | AGGATTTACT | 1.01 ± 0.026
10 | AGGATTTAGG | 0.983 ± 0.031
11 | TTTGTCAGGC | 1.02 ± 0.053
12 | ATGAATTTGT | 1.01 ± 0.032
13 | TAATGGGACG | 1.08 ± 0.14
14 | GTGTTCTGGA | 1.002 ± 0.006
15 | ACTTCACATA | 1.35 ± 0.042
16 | TCCATATGGT | 0.975 ± 0.023
17 | TTTTATGTGG | 1.01 ± 0.04
18 | TAGCAGGGGG | 1.03 ± 0.011
19 | TGGATTGAGC | 0.967 ± 0.026
20 | GTTACTAATT | 0.9943 ± 0.0081
21 | AATGCTTTGG | 1.007 ± 0.0095
22 | TCGGTAAATG | 1.04 ± 0.018
23 | GCCCAAGGGG | 1.05 ± 0.091

Row | Sequence | switch fluorescence ratio
24 | AATTGTTTCA | 0.974 ± 0.016
25 | GGCTACGGAA | 2.32 ± 0.022
26 | AATTTCATTG | 0.9986 ± 0.0035
27 | CGGGTGAGGA | 1.04 ± 0.04
28 | TTTGGGGGAG | 1.01 ± 0.027
29 | CGAGTACTGT | 0.994 ± 0.025
30 | ACTGGGGATA | 0.988 ± 0.047
31 | AGTTGGGTGG | 1.04 ± 0.026
32 | GAGGGCAATC | 2.76 ± 0.64
33 | GGTTAGTTGG | 0.978 ± 0.027
34 | GCTACTGGCC | 1.02 ± 0.039
35 | TCGCAGGCCT | 1.033 ± 0.003
36 | TTGCTTTGGG | 1.01 ± 0.018
37 | GGTCATGTTG | 0.997 ± 0.051
38 | AAAGGAGGGC | 0.968 ± 0.067
39 | GTTTGGGACG | 0.9905 ± 0.0082
40 | TTCAGGGGGG | 1.02 ± 0.033
41 | TTGTATTCGG | 1 ± 0.03
42 | TGCCTCAGGG | 1.08 ± 0.021
43 | TTTGTGATTT | 1.11 ± 0.27
44 | GCGACGTGAC | 3.17 ± 0.24
45 | TCATATTTGT | 0.981 ± 0.019
46 | GCGATATCTT | 1.04 ± 0.029

Row | Sequence | switch fluorescence ratio
47 | TGTTTCTGG | 0.996 ± 0.036
48 | CTTATTGTTT | 0.995 ± 0.069
49 | GTTTAATGGT | 0.9852 ± 0.009
50 | TTCTACTAGT | 0.98 ± 0.024
51 | TCAGGGCGAT | 1.03 ± 0.026
52 | GAGACGTTTG | 1.02 ± 0.054
53 | ATTATCGCGC | 0.983 ± 0.031
54 | CTTGGAGGGG | 1.0187 ± 0.00015
55 | ACCTAATGTT | 1.02 ± 0.016
56 | GGTTCTATTT | 1.03 ± 0.016
57 | TTTGTCCTTA | 0.9932 ± 0.0017
58 | GTTCTGTTGG | 0.995 ± 0.023
59 | GAACGGTATG | 1.02 ± 0.051
60 | CAGTGGATAC | 1.2218 ± 0.00027
61 | ATATATGCAG | 0.986 ± 0.018
62 | CCGGGTGGGT | 1.11 ± 0.13
63 | CGGGGTTACT | 0.9961 ± 0.0082
64 | ATTTATTCTT | 1.011 ± 0.0052
65 | TACAGGCGTA | 0.9955 ± 0.0069
66 | ACTCTTTTAC | 1.291 ± 0.0056
67 | TATAGAAGGG | 1 ± 0.053
68 | TGTTAGGGAG | 0.987 ± 0.03
69 | TTAATTTGAA | 0.997 ± 0.013

Row | Sequence | switch fluorescence ratio
70 | GGGGGTCTGG | 0.9855 ± 0.0097
71 | AAGGAGGTTG | 0.999 ± 0.053
72 | TTTGTGAGGG | 0.982 ± 0.028
73 | TTTGTCATCG | 1.03 ± 0.018
74 | ATAGAACGGG | 1.01 ± 0.025
75 | TATGTTAATG | 0.999 ± 0.016
76 | CGGGCGGACA | 0.974 ± 0.04
77 | ATTGCCGAGT | 1.03 ± 0.022
78 | GCATTTTTCT | 0.982 ± 0.031
79 | ACTGACGATG | 1.31 ± 0.018
80 | CGCTCATTTG | 0.97 ± 0.016
81 | ATGAAAATTT | 1.05 ± 0.017
82 | GGGGGCCGCC | 0.988 ± 0.01
83 | GGGTGGGCAG | 1.009 ± 0.0027
84 | GGTCATATGC | 1.04 ± 0.013
85 | ACTTGCGGGC | 1.03 ± 0.021
86 | GGTAGACGGT | 1.02 ± 0.049
87 | CATTTCTGAG | 1.008 ± 0.0061
88 | GTATGCGAGG | 1 ± 0.08
89 | TAGTAGTGTG | 0.9625 ± 0.001
90 | TGCGGGAAGT | 1 ± 0.014
91 | TCGAACTGCT | 1.02 ± 0.02
92 | TGAATCTTGG | 1.02 ± 0.044

Row | Sequence | switch fluorescence ratio
93 | AGGGGGCTCT | 1.02 ± 0.029
94 | GATCAGCCCG | 1.016 ± 0.005
95 | TCAATTAACT | 1.03 ± 0.013
96 | ACGTTTGGCT | 0.954 ± 0.028
97 | TCGCCTGGGG | 1.1 ± 0.0046
98 | GATCCGGGGG | 0.988 ± 0.043
99 | TAATTGCGGT | 1.007 ± 0.0045
100 | ATAGTACGCG | 0.992 ± 0.03
101 | AGAACGGCCT | 1.01 ± 0.019
102 | CTGGTCACAG | 1 ± 0.024
103 | TAGGCTTTTG | 1.03 ± 0.056
104 | CCAACGGCCA | 1.2 ± 0.049
105 | ACTTATTTGC | 1.16 ± 0.17
106 | GGGATTACCA | 1 ± 0.056
107 | TGGACGTTGC | 1.03 ± 0.012
108 | AGGTTTGCGA | 1.02 ± 0.018
109 | GGAGAGTCCG | 1.03 ± 0.036
110 | CTTTGGAAAT | 0.9997 ± 0.0023
111 | TCATATTTTT | 1.006 ± 0.0064
112 | ACGATTTTTC | 0.974 ± 0.056
113 | ATCGGAGGTG | 1.02 ± 0.062
114 | ACCTTAAAGA | 0.9915 ± 0.005
115 | ATTTGATTTG | 1 ± 0.046

Row | Sequence | switch fluorescence ratio
116 | GTTCTTTTTT | 0.9511 ± 0.0071
117 | TGGGGTTGTC | 0.993 ± 0.034
118 | CGTCCAGCTT | 1.51 ± 0.18
119 | GTCGTAATTG | 1.02 ± 0.016
120 | CTGTCGCTTA | 1.01 ± 0.019
121 | AACGTTGCTT | 1.01 ± 0.013
122 | AAATCCCGCT | 1.0834 ± 0.00016
123 | AATGTTATAG | 1.008 ± 0.00014
124 | CACTTGGGTG | 1.064 ± 0.0066
125 | GAAATTTTTT | 1 ± 0.034
126 | TACGTCCCCG | 1.03 ± 0.04
127 | AAGATATTCT | 1.027 ± 0.0091
128 | GTTTTTTAGA | 0.9728 ± 0.0018
129 | GTATGGGATG | 0.993 ± 0.015
130 | TGTTAGGGGT | 1 ± 0.075
131 | GGAGGAGGGC | 0.909 ± 0.043
132 | GTTGTGAGGA | 0.984 ± 0.036
133 | CGGGTATTAA | 0.994 ± 0.032
134 | GGGGTGTAGC | 0.992 ± 0.042
135 | GACTAGTATA | 1.01 ± 0.04
136 | CGCATTGTGA | 1.02 ± 0.063
137 | TGATCGTGAG | 1.02 ± 0.017
138 | CGTAGTAGGC | 1.12 ± 0.1

Row | Sequence | switch fluorescence ratio
139 | AACCTGGGGC | 1.15 ± 0.044
140 | TGTGGGAAGG | 1.05 ± 0.074
141 | CTAAGGCGTT | 0.999 ± 0.013
142 | AGTAAATAGT | 1.0008 ± 3.6e-05
143 | TAGGCAATCT | 1.25 ± 0.092
144 | ATTATTAATT | 0.973 ± 0.022
145 | GACTACGGCC | 1.049 ± 0.0065
146 | ATTTTGTCAT | 0.972 ± 0.019
147 | TGGACTCTGG | 0.973 ± 0.02
148 | CATTTGACGG | 0.995 ± 0.024
149 | ACCTAGGGAG | 1.05 ± 0.02
150 | AAGTGGGGGA | 1.02 ± 0.015
151 | AGGGACAACT | 1.08 ± 0.0015
152 | AATCGTATCC | 1.01 ± 0.029
153 | GGGTTGCCCT | 0.982 ± 0.033
154 | CAGGCATGGT | 0.9891 ± 0.002
155 | TATGATGTCG | 1.01 ± 0.027
156 | TGCGCCCGGC | 1.031 ± 0.0027
157 | TTGAATTCGG | 0.9841 ± 0.0039

Reference: the supplement of paper PMC10126150
